One protein from paper doi:10.1101/2021.03.29.437564 (bioRxiv, 2021) can be followed below.

For orientation: stoichiometry N means a count of units in the complex or per binding partner.

The data set deals with the molecule itself. As to the kind of experiment: direct infusion mass spectrometry.

B1: ParD antitoxin (PA0125) from Pseudomonas aeruginosa, wild type (natural protein)
chain: MSTVVSFRADDALVAALDELARATHRDRPYHLRQALAQYLERQQWQVAAIDEGLADANAGRLLEHIEIEKRWGLQ
B1: the “stoichiometry N” value stood at 2.
